Test results from publication PMC8051872.

Target: wild-type full-length human ADAMTS13 (human) (UniProt Q76LX8)

B1: wild-type full-length human ADAMTS13 (enzyme)
chain: AAGGILHLELLVAVGPDVFQAHQEDTERYVLTNLNIGAELLRDPSLGAQFRVHLVKMVILTEPEGAPNITANLTSSLLSVCGWSQTINPEDDTDPGHADLVLYITRFDLELPDGNRQVRGVTQLGGACSPTWSCLITEDTGFDLGVTIAHEIGHSFGLEHDGAPGSGCGPSGHVMASDGAAPRAGLAWSPCSRRQLLSLLSAGRARCVWDPPRPQPGSAGHPPDAQPGLYYSANEQCRVAFGPKAVACTFAREHLDMCQALSCHTDPLDQSSCSRLLVPLLDGTECGVEKWCSKGRCRSLVELTPIAAVHGRWSSWGPRSPCSRSCGGGVVTRRRQCNNPRPAFGGRACVGADLQAEMCNTQACEKTQLEFMSQQCARTDGQPLRSSPGGASFYHWGAAVPHSQGDALCRHMCRAIGESFIMKRGDSFLDGTRCMPSGPREDGTLSLCVSGSCRTFGCDGRMDSQQVWDRCQVCGGDNSTCSPRKGSFTAGRAREYVTFLTVTPNLTSVYIANHRPLFTHLAVRIGGRYVVAGKMSISPNTTYPSLLEDGRVEYRVALTEDRLPRLEEIRIWGPLQEDADIQVYRRYGEEYGNLTRPDITFTYFQPKPRQAWVWAAVRGPCSVSCGAGLRWVNYSCLDQARKELVETVQCQGSQQPPAWPEACVLEPCPPYWAVGDFGPCSASCGGGLRERPVRCVEAQGSLLKTLPPARCRAGAQQPAVALETCNPQPCPARWEVSEPSSCTSAGGAGLALENETCVPGADGLEAPVTEGPGSVDEKLPAPEPCVGMSCPPGWGHLDATSAGEKAPSPWGSIRTGAQAAHVWTPAAGSCSVSCGRGLMELRFLCMDSALRVPVQEELCGLASKPGSRREVCQAVPCPARWQYKLAACSVSCGRGVVRRILYCARAHGEDDGEEILLDTQCQGLPRPEPQEACSLEPCPPRWKVMSLGPCSASCGLGTARRSVACVQLDQGQDVEVDEAACAALVRPEASVPCLIADCTYRWHVGTWMECSVSCGDGIQRRRDTCLGPQAQAPVPADFCQHLPKPVTVRGCWAGPCVGQGTPSLVPHEEAAAPGRTTATPAGASLEWSQARGLLFSPAPQPRRLLPGPQENSVQSSACGRQHLEPTGTIDMRGPGQADCAVAIGRPLGEVVTLRVLESSLNCSAGDMLLLWGRLTWRKMCRKLLDMTFSSKTNTLVVRQRCGRPGGGVLLRYGSQLAPETFYRECDMQLFGPWGEIVSPSLSPATSNAGGCRLFINVAPHARIAIHALATNMGAGTEGANASYILIRDTHSLRTTAFHGQQVLYWESESSQAEMEFSEGFLKAQASLRGQYWTLQSWVPEMQDPQSWKGKEGT
Question: How did the percent enhancement by antibody 17G2 of catalytic efficiency (kcat/Km) of VWF96 proteolysis; intramolecular Spacer-CUB interaction within full-length ADAMTS13 turn out when B1 was run?
Answer: The percent enhancement by antibody 17G2 of catalytic efficiency (kcat/Km) of VWF96 proteolysis; intramolecular Spacer-CUB interaction within full-length ADAMTS13 was 188%.
